We go through two molecules from doi:10.1101/2020.11.11.367672 (bioRxiv, 2020).

Common to all, as to experiment: pull-down
The target of assay [1] is GST (glutathione-S-transferase)-tagged RPAP3 (human, UniProt Q9H6T3 1-665).
For assay [2], the target named is RPAP3 TPR1 domain (residues 133-255) (human, UniProt Q9H6T3 133-255).
A further assay deals with T1, Dicer 256-595 domain (human, UniProt Q9UPY3 256-595).
T1 sequence: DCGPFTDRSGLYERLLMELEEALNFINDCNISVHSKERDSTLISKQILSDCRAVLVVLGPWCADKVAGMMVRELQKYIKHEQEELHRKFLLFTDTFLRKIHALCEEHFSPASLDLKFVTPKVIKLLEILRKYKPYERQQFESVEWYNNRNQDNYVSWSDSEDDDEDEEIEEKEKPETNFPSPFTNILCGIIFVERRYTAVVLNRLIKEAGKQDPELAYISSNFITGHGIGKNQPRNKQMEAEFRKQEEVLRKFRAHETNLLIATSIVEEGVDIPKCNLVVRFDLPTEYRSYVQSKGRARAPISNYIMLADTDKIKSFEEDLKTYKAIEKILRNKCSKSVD

Chain of RPAP3 TPR1 domain (residues 133-255) (Q9H6T3 133-255): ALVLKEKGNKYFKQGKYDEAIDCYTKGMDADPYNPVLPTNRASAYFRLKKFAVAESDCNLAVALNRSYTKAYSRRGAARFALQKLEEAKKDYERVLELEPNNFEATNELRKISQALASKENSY
Chain of GST (glutathione-S-transferase)-tagged RPAP3 (Q9H6T3 whole entry, the tested form may be a part): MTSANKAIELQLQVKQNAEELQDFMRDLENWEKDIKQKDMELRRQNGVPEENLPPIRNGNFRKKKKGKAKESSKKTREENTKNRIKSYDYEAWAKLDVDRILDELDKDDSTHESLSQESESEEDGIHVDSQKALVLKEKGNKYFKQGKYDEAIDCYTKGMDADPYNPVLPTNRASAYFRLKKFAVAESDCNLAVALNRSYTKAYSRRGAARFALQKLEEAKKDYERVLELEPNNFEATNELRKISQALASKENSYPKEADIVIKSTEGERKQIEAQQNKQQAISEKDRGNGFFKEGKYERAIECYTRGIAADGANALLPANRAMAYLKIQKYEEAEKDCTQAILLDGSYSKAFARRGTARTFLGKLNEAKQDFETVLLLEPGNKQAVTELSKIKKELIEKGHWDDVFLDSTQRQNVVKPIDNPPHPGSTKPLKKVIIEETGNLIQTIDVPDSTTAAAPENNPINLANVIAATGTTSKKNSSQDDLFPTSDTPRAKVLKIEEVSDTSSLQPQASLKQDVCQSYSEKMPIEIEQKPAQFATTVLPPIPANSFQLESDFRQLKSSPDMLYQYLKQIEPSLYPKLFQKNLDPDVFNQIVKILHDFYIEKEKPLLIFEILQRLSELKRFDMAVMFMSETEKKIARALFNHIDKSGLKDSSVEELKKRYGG

B1: His6-tagged TRBP protein (purified recombinant, GST pull-down) (natural protein)
chain: MSEEEQGSGTTTGCGLPSIEQMLAANPGKTPISLLQEYGTRIGKTPVYDLLKAEGQAHQPNFTFRVTVGDTSCTGQGPSKKAAKHKAAEVALKHLKGGSMLEPALEDSSSFSPLDSSLPEDIPVFTAAAAATPVPSVVLTRSPPMELQPPVSPQQSECNPVGALQELVVQKGWRLPEYTVTQESGPAHRKEFTMTCRVERFIEIGSGTSKKLAKRNAAAKMLLRVHTVPLDARDGNEVEPDDDHFSIGVGSRLDGLRNRGPGCTWDSLRNSVGEKILSLRSCSLGSLGALGPACCRVLSELSEEQAFHVSYLDIEELSLSGLCQCLVELSTQPATVCHGSATTREAARGEAARRALQYLKIMAGSK
For B1, the binding result in assay [1] is given as “binds”.

B2: His6-tagged TRBP dsRBD3 (262-366) (domain or fragment)
chain: GCTWDSLRNSVGEKILSLRSCSLGSLGALGPACCRVLSELSEEQAFHVSYLDIEELSLSGLCQCLVELSTQPATVCHGSATTREAARGEAARRALQYLKIMAGSK
B2: the binding result (in assay [2]; in the assay with Dicer 256-595 domain) was “binds” in each case.
